The record followed here is the RNAGym collection of RNA variant scans (doi:10.7554/elife.80360).

To fix the notation:
B1: HDV Ribozyme (parent)
chain: GGCCGGCAUGGUCCCAGCCUCCUCGCUGGCGCCGGCUGGGCAACAUUCCGAGGGGACCGUCCCCUCGGUAAUGGCGAAUGGGACCCA

The variants in the data set derive from B1. The data set can be described thus: self-cleavage, relative activity (ratio to wild type); higher = more cleavage; co-transcriptional.
Consider GGCCGGCAUGGUCCCAGCCUCCUCGGUGGCGCCGGCUGGGCUACAUUCCGAGGGGACCGUCCCCUCGGUAAUGGCGAAUGGGACCCA [C26G A42U], for which the self-cleavage turned out to be 0.449.

For the variant GGCCGGCAUGGUCCCAGCCUCCUCGAUGGCGCCGGCUGGGCAACAUUCCGAGGGGACCGUCCCCUCGGUAAUGGAGAAUGGGACCCA [C26A C75A], the self-cleavage turned out to be 0.0415.

For GGCCGGCAUGGUCCCAGCCUCCUCGAUGGCGCCGGCUGGGCAACAUUCCGAGAGGACCGUCCCCUCGGUAAUGGCGAAUGGGACCCA [C26A G53A], the self-cleavage is 0.845.

Take GGCCGGCAUGGUCCCAGCCUCCUCGAUGGCGCCGGCUGGGCAACAUUCCGAGGGGACCGUCACCUCGGUAAUGGCGAAUGGGACCCA [C26A C62A]: the self-cleavage turned out to be 1.15.

Take GGCCGGCAUGGUCCCAGCCUCCUCGGUGGCGCCGGCUGGGCAACAUUCCGGGGGGACCGUCCCCUCGGUAAUGGCGAAUGGGACCCA [C26G A51G]: the self-cleavage was found to be 0.997.

Regarding GGCCGGCAUGGUCCCAGCCUCCUCGGUGGCGCCGGCUGGGCAACAUUCCGUGGGGACCGUCCCCUCGGUAAUGGCGAAUGGGACCCA [C26G A51U], the self-cleavage stood at 0.95.

Regarding GGCCGGCAUGGUCCCAGCCUCCUCGAAGGCGCCGGCUGGGCAACAUUCCGAGGGGACCGUCCCCUCGGUAAUGGCGAAUGGGACCCA [C26A U27A], the self-cleavage amounted to 0.749.

Turning to GGCCGGCAUGGUCCCAGCCUCCUCGAUGGCGCCGGCUGGGCAACAUUCCGAGGGGACCGUCCCCUCGGUAAUGGCGAAUGCGACCCA [C26A G81C], the self-cleavage came out at 0.193.

On to GGCCGGCAUGGUCCCAGCCUCCUCGAUGGCGCCGGCUGGGCAACAUUCCGAGGGGACCGUCCCCUCGGUAAUGGCGAAUGUGACCCA [C26A G81U], for which the self-cleavage turned out to be 0.519.

With GGCCGGCAUGGUCCCAGCCUCCUCGAUGGCGCCGGCUGGGCAACAUUCCGAGGGGACCGUCCACUCGGUAAUGGCGAAUGGGACCCA [C26A C63A], the self-cleavage came out at 0.724.

Regarding GGCCGGCAUGGUCCCAGCCUCCUCGAUGGCGCCGGCUGGGCAACAUUCCGAGGGGACCGUCCUCUCGGUAAUGGCGAAUGGGACCCA [C26A C63U], the self-cleavage came to 0.869.

Turning to GGCCGGCAUGGUCCCAGCCUCCUCGAUGGCGCCGGCUGGGCAACAUUCCGAGGGGACCGUCCCCUCGGUAAAGGCGAAUGGGACCCA [C26A U72A], the self-cleavage came to 0.692.

For GGCCGGCAUGGUCCCAGCCUCCUCGAUGGCGCCGGCUGGGCAACAUUCCGAGGGGACCGUCCCCUCGGUAAUGGCGAACGGGACCCA [C26A U79C], the self-cleavage amounted to 0.469.

Turning to GGCCGGCAUGGUCCCAGCCUCCUCGAUGGCGCCGGCUGGGCAACAUUCCGAGGGGACCGUCCCCUCGGUAAUGGCGAAAGGGACCCA [C26A U79A], the self-cleavage is 0.997.

On to GGCCGGCAUGGUCCCAGCCUCCUCGAUGGCGCCGGCUGGGCAACAUUCCCAGGGGACCGUCCCCUCGGUAAUGGCGAAUGGGACCCA [C26A G50C], for which the self-cleavage was found to be 1.16.

GGCCGGCAUGGUCCCAGCCUCCUCGAUGGCGCCGGCUGGGCAACAUUCCUAGGGGACCGUCCCCUCGGUAAUGGCGAAUGGGACCCA [C26A G50U]: the self-cleavage came out at 0.958.

As to GGCCGGCAUGGUCCCAGCCUCCUCGAUGGCGCCGGCUGGGCAACAUUCCGAGGGGACCGUCCCCUCGGUAAUGGCUAAUGGGACCCA [C26A G76U], the self-cleavage worked out at 1.05.

Take GGCCGGCAUGGUCCCAGCCUCCUCGAUGGCGCCGGCUGGGCAACAUUCCGAGGGGACCGUCCCCUCGGUAAUGGCAAAUGGGACCCA [C26A G76A]: the self-cleavage was 1.03.

Take GGCCGGCAUGGUCCCAGCCUCCUCGAUGGCGCCGGCUGGGCAACAUUCCGAGGGGACCGUCCCCUCGGUAAUGGCCAAUGGGACCCA [C26A G76C]: the self-cleavage came out at 1.08.

Take GGCCGGCAUGGUCCCAGCCUCCUCGAUGGCGCCGGCUGGGCAACAUUCCGAGGGGACCGUCCCCUCGGUAAUGGCGAAUGGGACGCA [C26A C85G]: the self-cleavage is 1.15.

For the variant GGCCGGCAUGGUCCCAGCCUCCUCGAUGGCGCCGGCUGGGCAACAUUCCGAGGGGACCGUCCCCUCGGUAAUGGCGAAUGGGACACA [C26A C85A], the self-cleavage came out at 0.997.

Take GGCCGGCAUGGUCCCAGCCUCCUCGAUGGCGCCGGCUGGGCAACAUUCCGAGGGGACCGUCCCCUCGGUAAUGGCGAAUGGGACUCA [C26A C85U]: the self-cleavage was 0.942.

As for GGCCGGCAUGGUCCCAGCCUCCUCGAUGGCGCCGGCUGCGCAACAUUCCGAGGGGACCGUCCCCUCGGUAAUGGCGAAUGGGACCCA [C26A G39C], the self-cleavage turned out to be 0.

For GGCCGGCAUGGUCCCAGCCUCCUCGAUGGCGCCGGCUGAGCAACAUUCCGAGGGGACCGUCCCCUCGGUAAUGGCGAAUGGGACCCA [C26A G39A], the self-cleavage amounted to 0.234.

Consider GGCCGGCAUGGUCCCAGCCUCCUCGAUGGCUCCGGCUGGGCAACAUUCCGAGGGGACCGUCCCCUCGGUAAUGGCGAAUGGGACCCA [C26A G31U], for which the self-cleavage was 0.425.

GGCCGGCAUGGUCCCAGCCUCCUCGAUGGCGCCGGCUAGGCAACAUUCCGAGGGGACCGUCCCCUCGGUAAUGGCGAAUGGGACCCA [C26A G38A]: the self-cleavage was 0.153.

GGCCGGCAUGGUCCCAGCCUCCUCGAUGGCGCCGGCUCGGCAACAUUCCGAGGGGACCGUCCCCUCGGUAAUGGCGAAUGGGACCCA [C26A G38C]: the self-cleavage amounted to 0.122.

GGCCGGCAUGGUCCCAGCCUCCUCGAUGGCGCCGGCUGGGCAACAUUCCGAGGGGACCGUCCCCUCGAUAAUGGCGAAUGGGACCCA [C26A G68A]: the self-cleavage was determined as 1.08.

Consider GGCCGGCAUGGUCCCAGCCUCCUCGAUGGCGCCGGCUGGGCAACAUUCCGAGGGGACCGUCCCCUGGGUAAUGGCGAAUGGGACCCA [C26A C66G], for which the self-cleavage was found to be 1.15.

In the case of GGCCGGCAUGGUCCCAGCCUCCUCGAUGGCGCCGGCUGGGCAACAUUCCGAGGGGACCGUCCCCUCAGUAAUGGCGAAUGGGACCCA [C26A G67A], the self-cleavage is 1.01.

With GGCCGGCAUGGUCCCAGCCUCCUCGAUGGCGCCGGCUGGGCAACAUUCCGAGGGGACCGUCCCCUCGGUAAUUGCGAAUGGGACCCA [C26A G73U], the self-cleavage turned out to be 0.415.

On to GGCCGGCAUGGUCCCAGCCUCCUCGAUGGCGCCGGCUGGGCAACAUUCCGAGGGAACCGUCCCCUCGGUAAUGGCGAAUGGGACCCA [C26A G55A], for which the self-cleavage was 0.888.
